Data from patent publication US20240385191A1 (NORDIC BIOSCIENCE A S, published 2024).
No end group written: not given here. *: point of attachment. Biotin = O=C1N[C@H]2[C@H](CS[C@H]2CCCCC(=O)*)N1; KLH = keyhole limpet hemocyanin

B1: standard peptide RHLEGRGEPGAVGQMGSPGQQGASTQGLWE (peptide)
peptide: RHLEGRGEPGAVGQMGSPGQQGASTQGLWE
notes: Synthetic 30-mer corresponding to the C-terminus of type XX collagen; also called 30 amino-acid variant
B2: monoclonal antibody targeting PRO-C20 (antibody produced by the best performing clone) (antibody, V domains shown)
VH: QIQLMQSGPELKKPGETVKISCKASGYPFTDYSMHWVKQAPGKGLKWMGWINTETGEPTYADGFKGRFAFSLETSASTAYLKINNLKNDDTATYFCARGPYWGQGTLVTVSA
VL: DVLLTQTPLSLPVSLGDQASISCRSSQSIVHNNGKIYLEWFLQKPGQSPKALIQKVSNRFSGVPDRFSGSGSGTDFTLKISRVEAEDLGVYYCFQGSHVPYTFGGGTKLEIKR
notes: Mouse hybridoma antibody (Balb/C mice), purified on protein G and HRP-labelled in the final ELISA; also called HRP-labelled monoclonal antibody; the monoclonal antibody

Experiments:
[1] = biological target: B2; test: competitive ELISA: standard peptide against coated Biotin-… for the HRP-labelled antibody
Experimental: After washing five times with washing buffer (25 mM Tris, 50 mM NaCl, pH 7.2), 20 μL/well of sample was added in duplicates followed by 100 μL/well of 50 ng/mL HRP-labelled monoclonal antibody in assay buffer and incubated for 1 hour at 20° C. with shaking at 300 RPM. After a second washing cycle, 100 μL/well of TMB was added and incubated for 15 minutes in darkness at 20° C. with shaking at 300 RPM. The reaction was stopped by adding 100 μL/well of 1% H₂SO₄. Absorbance was measured at 450 nm with 650 nm as reference. […]
Assay variation was tested by running ten independent run of the assay using ten quality control samples in double determinations. […] Intra-assay variation was calculated as the mean coefficient of variance (CV %) between the double determinations on each of the ten runs. Inter-assay variation was calculated as the overall CV % for all determinations on the ten runs. Lower-and upper-limit of the measurement range (LLMR and ULMR) were determined as the concentrations that denotes the limits of the linear range of the assay. Lower limit of detection was calculated as the mean interpolated concentration of 21 blank samples, only containing assay buffer, plus three standard deviations. Upper limit of detection was calculated as the mean interpolated concentration of standard peptide corresponding to the highest concentration of the standard curve minus three standard deviations.

[2] = biological target: T1, non-sense KLH-conjugated peptide IRQCPDRTYG-GGC-KLH; test: preliminary competitive ELISA for clone selection
T1 peptide: IRQCPDRTYGGGC(KLH)

[3] = biological target: T2, non-sense coater peptide Biotin-SHAHQRTGGN; test: ELISA with the non-sense biotinylated peptide as coater on a streptavidin plate
T2 construct: Control coater on the streptavidin plate
T2 peptide: Biotin-SHAHQRTGGN
Experimental: Several optimizations were made to the ELISA including the choice of assay buffer, incubation time and temperature as well as concentrations of antibody and peptides. […] After washing five times with washing buffer (25 mM Tris, 50 mM NaCl, pH 7.2), 20 μL/well of sample was added in duplicates followed by 100 μL/well of 50 ng/mL HRP-labelled monoclonal antibody in assay buffer and incubated for 1 hour at 20° C. with shaking at 300 RPM. After a second washing cycle, 100 μL/well of TMB was added and incubated for 15 minutes in darkness at 20° C. with shaking at 300 RPM. The reaction was stopped by adding 100 μL/well of 1% H₂SO₄. Absorbance was measured at 450 nm with 650 nm as reference. To generate a standard curve, 20 μL/well of 50 ng/ml standard peptide ([…] (SEQ ID NO: 6)), serially diluted two-fold, was added to appropriate wells and a four-parametric logistic regression model was used to fit a curve. […]
Antibody specificity was evaluated by the inhibition of signal by two-fold serial dilutions of the standard peptide ([…] (SEQ ID NO: 6)), elongated peptide ([…] (SEQ ID NO: 2)), truncated peptide ([…] (SEQ ID NO: 3)) as well as a non-sense standard peptide ([…] (SEQ ID NO: 8)) and a non-sense coater peptide (Biotin-[…] (SEQ ID NO: 9)).

| Binder | IC50 [1] | binding result [2] | binding result [3] |
| --- | --- | --- | --- |
| B1 | 5.59 ng/mL | – | – |
| B2 | – | no binding | no binding |
